This passage reports protein stability index results from the supplement of paper PMC9732359.

The nature of this data set: protein stability index of a GFP-peptide fusion (yeast GPS) (PSI 1-4); higher = more stable; sorted into four equal gates, so the index is relative within each strain. The gist of the method: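 For each peptide, the protein stability index sums the read frequency in every gate after multiplying it by the gate number. Read frequencies came from plasmids that were PCR-amplified from each gate and Illumina-sequenced, with reads assigned to strains by barcodes. The gates were four equal bins of GFP/Cherry fluorescence ratio applied to mid-log yeast in leucine-free medium carrying a pooled library of tiled 17-residue yeast protein peptides fused downstream of GFP on a Cherry-expressing plasmid.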

± gives the uncertainty stated by the source.

KIRRAARDLLTRDEKDP [RPS9A] gave a protein stability index (doa10∆) of 2.33 ± 0.08, a protein stability index (pdr5∆) of 2.49 ± 0.065, a protein stability index (san1∆) of 2.3 ± 0.093 and a protein stability index (ubr1∆) of 2.58 ± 0.078.
For ENESTNYQYKIQELRKL [MED7] the same measures were 2.25 ± 0.054, 2.61 ± 0.074, 2.36 ± 0.074 and 2.69 ± 0.06.
The sequence PQKNVKIQVVDRHIGCV [PRE10] had a protein stability index (pdr5∆) of 2.72 ± 0.27.
For the sequence IDPSVTMMTVEEKPDVT [RPT1], the protein stability index (doa10∆) was found to be 2.62 ± 0.097, the protein stability index (pdr5∆) is 2.58 ± 0.059, the protein stability index (san1∆) stood at 1.93 ± 0.13 and the protein stability index (ubr1∆) was 2.38 ± 0.05.
On the same counts, the results for KCPGCLNITTVFSHAQT [RPS27A] are 2.76 ± 0.046, 2.76 ± 0.051, 2.9 ± 0.045 and 2.99 ± 0.043.
On the same counts, the results for NDHSKSANPKKTTITRV [SWI3] are 2.9 ± 0.11, 3.09 ± 0.092, 3.14 ± 0.08 and 2.97 ± 0.051.
ISKQKSKLDYIFKDKEK [SMC1]: the protein stability index worked out at 2.78 ± 0.14 (doa10∆), 2.71 ± 0.12 (pdr5∆), 2.89 ± 0.15 (san1∆) and 3.29 ± 0.091 (ubr1∆).
For NTTDPLGHTKAALGEVA [SIR2], the protein stability index reads like this: (doa10∆) 2.51 ± 0.065; (pdr5∆) 2.69 ± 0.078; (san1∆) 2.67 ± 0.088; (ubr1∆) 3.08 ± 0.069.
On the same counts, the results for KLEAEEIPSEDQNEFLL [FAS2] are 2.62 ± 0.13, 1.75 ± 0.092, 2.25 ± 0.11 and 3.51 ± 0.16.
For PSSEVYSPIEKESPWKI [RRP6] the same measures were 2.87 ± 0.15, 3.03 ± 0.1, 2.82 ± 0.12 and 3.29 ± 0.11.
On the same counts, the results for AMTIYWDDHTKKPLSMA [CDC53] are 2.87 ± 0.077, 2.67 ± 0.091, 2.69 ± 0.048 and 2.85 ± 0.062.
Consider KMEKKKSSSLSLESFMK [SNM1], for which the protein stability index reads like this: (doa10∆) 3.06 ± 0.1; (pdr5∆) 3.32 ± 0.12; (san1∆) 2.93 ± 0.14; (ubr1∆) 2.97 ± 0.084.
On the same counts, the results for NRQICLVQKTVQESGNI [GRR1] are 3.44 ± 0.16, 3.21 ± 0.077, 2.81 ± 0.064 and 2.69 ± 0.1.
For SMNVTLGVPRIKEIINA [RPO31], the protein stability index (doa10∆) was 2.71 ± 0.066, the protein stability index (pdr5∆) was found to be 2.56 ± 0.048, the protein stability index (san1∆) is 2.13 ± 0.065 and the protein stability index (ubr1∆) was 2.47 ± 0.046.
For LEQMELSILKGDYSQAT [RPN5] the same measures were 2.86 ± 0.079, 2.91 ± 0.068, 2.94 ± 0.11 and 2.64 ± 0.062.
As for EVDKSKLITTYISLLKL [YDL116W/NUP84], the protein stability index by setting is: (doa10∆) 2.66 ± 0.08; (pdr5∆) 1.45 ± 0.06; (san1∆) 1.27 ± 0.13; (ubr1∆) 1.43 ± 0.046.
TIVGVKFNNGVVIAADT [PUP1]: the protein stability index worked out at 1.43 ± 0.072 (doa10∆), 2.55 ± 0.14 (pdr5∆) and 2.55 ± 0.17 (ubr1∆).
FLKKNIIKENVKVARLA [FAS1] returned a protein stability index (pdr5∆) of 1.56 ± 0.26.
As to KLCYVLGVEDITLIDSA [RET1], the protein stability index by setting is: (doa10∆) 1.58 ± 0.12; (pdr5∆) 1.73 ± 0.25; (san1∆) 1.26 ± 0.27; (ubr1∆) 1.74 ± 0.07.
As to VASRHPSESEHPIRVLM [YDL116W/NUP84], the protein stability index runs as follows: (pdr5∆) 3 ± 0.25; (san1∆) 2.9 ± 0.23.
VDPVYKDVAKPTGPKTA [FAS2] returned a protein stability index (doa10∆) of 2.99 ± 0.096, a protein stability index (pdr5∆) of 3.05 ± 0.1, a protein stability index (san1∆) of 2.52 ± 0.08 and a protein stability index (ubr1∆) of 2.34 ± 0.069.
For VDVAKDINVKDLKASQR [RPT6] the same measures were 3.35 ± 0.14, 3.13 ± 0.11, 2.63 ± 0.18 and 3.22 ± 0.098.
In turn, YSSAPLRTVKEVQFGLF [RPO21] displayed a protein stability index (pdr5∆) of 2.27 ± 0.2.
Turning to TRDVEPENLQVTSEKYP [BRR2], the protein stability index amounted to 2.75 ± 0.1 (doa10∆), 3.35 ± 0.18 (pdr5∆) and 3.13 ± 0.11 (ubr1∆).
Turning to KIDKPIRTQVNTGGESV [RGR1], the protein stability index was 2.4 ± 0.06 (doa10∆), 2.4 ± 0.044 (pdr5∆), 2.32 ± 0.052 (san1∆) and 2.25 ± 0.036 (ubr1∆).
For NNIVSVLTAGVNSVAIK [RPN11] the same measures were 2.28 ± 0.075, 2.26 ± 0.087, 2.66 ± 0.078 and 1.97 ± 0.058.
Consider QTANEKHITVRLTAKRL [SRP14], for which the protein stability index is 2.75 ± 0.1 (doa10∆), 2.91 ± 0.09 (pdr5∆), 2.94 ± 0.082 (san1∆) and 2.92 ± 0.065 (ubr1∆).
On the same counts, the results for ETIKSLEDPYKYHYKEE [CSN9] are 3.17 ± 0.09, 3.13 ± 0.082, 3.09 ± 0.07 and 3.14 ± 0.06.
For LAFIPNILALNLVSLLI [YML031W/NDC1] the same measures were 1.83 ± 0.073, 1.38 ± 0.044, 1.44 ± 0.098 and 1.73 ± 0.047.
On the same counts, the results for KEIKTNEYVIKTPVFTT [YMR129W/POM152] are 2.1 ± 0.072, 1.98 ± 0.056, 1.88 ± 0.084 and 1.94 ± 0.042.
For QHQRIVAFVCSPISDSR [RPN10], the protein stability index by setting is: (doa10∆) 1.92 ± 0.097; (pdr5∆) 3.12 ± 0.11; (san1∆) 1.48 ± 0.15; (ubr1∆) 2.3 ± 0.16.
On to LVKTKELIKNYITARIM [FAS1], for which the protein stability index is, setting by setting: (pdr5∆) 2.91 ± 0.19; (san1∆) 3.02 ± 0.27; (ubr1∆) 2.64 ± 0.073.
NLEKNYLAKLSKQLSLE [IRR1]: the protein stability index came to 3.19 ± 0.14 (doa10∆), 3.34 ± 0.12 (pdr5∆), 2.55 ± 0.13 (san1∆) and 3.14 ± 0.084 (ubr1∆).
For IRITSLQGDLTFTKKCL [SIR4] the same measures were 2.87 ± 0.068, 2.71 ± 0.078, 2.81 ± 0.085 and 2.79 ± 0.059.
On the same counts, the results for AAAFSQQQNASSKLYQM [GAL11] are 2.71 ± 0.097, 2.86 ± 0.071, 2.82 ± 0.045 and 3.25 ± 0.072.
For MPGGYFHSEISPDSTVN [YAR002W/NUP60] the same measures were 2.56 ± 0.076, 3 ± 0.095, 2.54 ± 0.061 and 2.76 ± 0.063.
As for NQNFSLTFQPQQQTNAL [GRR1], the protein stability index runs as follows: (doa10∆) 2.95 ± 0.065; (pdr5∆) 3.2 ± 0.061; (san1∆) 3.02 ± 0.067; (ubr1∆) 2.94 ± 0.057.
As for NGKDSEIMYTGVSISVS [SMC3], the protein stability index stood at 3.29 ± 0.22 (doa10∆), 2.87 ± 0.21 (pdr5∆), 2.83 ± 0.1 (san1∆) and 2.29 ± 0.17 (ubr1∆).
For PQSAPNQMGMGTNNGMS [YOR098C/NUP1], the protein stability index reads like this: (doa10∆) 3.4 ± 0.12; (pdr5∆) 3.14 ± 0.13; (san1∆) 3.29 ± 0.098; (ubr1∆) 3.31 ± 0.096.
